From paper doi:10.1101/2021.09.13.460064
Read-outs that look alike come from different tables or passages of the source.

How the values were obtained:
Experiment in all cases: SEC-MALS
[1] = biological target: His-tagged N. castellii Kar9 N-terminal domain, wild type (NcKar9N-αβγ) (Naumovozyma castellii)
[2] = biological target: His-tagged NcKar9N-αβ• (γ-interface mutant, Tyr363Ala/Arg364Ala) (Naumovozyma castellii)
[3] = biological target: His-tagged NcKar9N-αβ• (γ-interface mutant, Tyr363Ala/Arg364Ala) (Naumovozyma castellii); remark: listed apart in the source
[4] = biological target: His-tagged NcKar9N-α•γ (β-interface mutant, Arg233Ala/Ile237Ala) (Naumovozyma castellii)
[5] = biological target: His-tagged NcKar9N-α•γ (β-interface mutant, Arg233Ala/Ile237Ala) (Naumovozyma castellii); remark: listed apart in the source

**Q.** With “His-tagged N. castellii Kar9 N-terminal domain, wild type (NcKar9N-αβγ) (domain or fragment)” as the substance, how does the stoichiometry N [1] read?
**A.** Its stoichiometry N is 2.

**Q.** For “His-tagged NcKar9N-αβ• (γ-interface mutant, Tyr363Ala/Arg364Ala) (domain or fragment)”, which stoichiometry N [2] is on record?
**A.** Its stoichiometry N is < 4.

**Q.** What about the stoichiometry N [3] of the same substance?
**A.** The stoichiometry N was < 4.

**Q.** With “His-tagged NcKar9N-α•γ (β-interface mutant, Arg233Ala/Ile237Ala) (domain or fragment)” as the substance, how does the stoichiometry N [4] read?
**A.** The stoichiometry N was 2.

**Q.** What about the stoichiometry N [5] of the same substance?
**A.** Its stoichiometry N is 2.
